Measured values reported in patent US20240376222A1 (University of Texas, published 2024).
Substitutions are numbered along the chain they refer to. Where two headings read alike, the source gives them in different places.

Assays:
[1] = target: T1, muTfR extracellular domain (ECD), His-tagged (mouse, UniProt Q62351 89-763); experiment: BLI (Octet), IgG on Protein A sensor, muTfR-ECD-His in solution, 1:1 global fit
T1 construct: extracellular domain; Bought protein (Sino Biological); also called muTfR-His; muTfR ECD
From the text: FIG. 3. Illustrates the Kinetics and binding affinities of murine transferrin receptor (TfR) antibodies and represents the kinetic binding graphs determined using BLI method with Octet 96-Red instrument. Protein A sensors (Fortebio) were used to capture anti-TfR IgG. Individual purified TfR antibodies were loaded onto Protein A sensors and subject to a solution flow containing muTfR-ECD-His at designated concentrations: (indicated by the colored lines under each graphs) and for a defined time (shown in X-axis). After binding, the sensors were incubated in blank kinetics buffer to allow free dissociation of TfR for designated time.
FIG. 4: Illustrates the binding kinetics parameters were calculated by the software from Fortebio (version 11) using 1:1 binding model with global fitting. KD is calculated by kdis/kon as determined from the FIG. 3 data.

[2] = target: T2, human TfR extracellular domain (ECD) (human, UniProt P02786 89-760); experiment: phage ELISA, scFv phage on coated TfR, anti-M13-HRP, single point
T2 construct: extracellular domain; Bought protein; also called HuTfR; huTfR

[3] = target: T2, human TfR extracellular domain (ECD); experiment: Octet BLI, serial dilution of antigen
[4] = target: T3, cynomolgus TfR extracellular domain (ECD) (cynomolgus); experiment: Octet BLI, serial dilution of antigen
T3 chain: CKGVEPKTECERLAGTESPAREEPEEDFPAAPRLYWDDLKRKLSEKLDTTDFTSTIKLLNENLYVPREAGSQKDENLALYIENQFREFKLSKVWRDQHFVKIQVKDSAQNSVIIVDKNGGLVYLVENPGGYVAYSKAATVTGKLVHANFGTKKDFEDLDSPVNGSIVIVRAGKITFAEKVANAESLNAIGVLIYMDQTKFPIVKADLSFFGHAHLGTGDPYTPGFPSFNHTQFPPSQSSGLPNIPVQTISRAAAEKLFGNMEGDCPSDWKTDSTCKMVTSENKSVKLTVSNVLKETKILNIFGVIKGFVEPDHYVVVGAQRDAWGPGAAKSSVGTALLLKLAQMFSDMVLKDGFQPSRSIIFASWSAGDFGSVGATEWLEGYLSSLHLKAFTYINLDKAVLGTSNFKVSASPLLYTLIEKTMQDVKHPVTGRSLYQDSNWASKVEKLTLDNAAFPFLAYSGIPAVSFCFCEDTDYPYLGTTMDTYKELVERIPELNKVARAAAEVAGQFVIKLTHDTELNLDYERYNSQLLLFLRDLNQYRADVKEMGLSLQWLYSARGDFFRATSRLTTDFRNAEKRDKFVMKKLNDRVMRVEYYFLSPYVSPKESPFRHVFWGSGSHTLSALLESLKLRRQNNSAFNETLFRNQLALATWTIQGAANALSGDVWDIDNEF

[5] = target: T2, human TfR extracellular domain (ECD); experiment: BLI (Octet), IgG on Protein A sensor, huTfR-ECD-His in solution, 1:1 global fit
Description: FIG. 1. Illustrates the Kinetics and binding affinities of human transferrin receptor (TfR) antibodies and represents the kinetic binding graphs determined using BLI method with Octet 96-Red instrument. Protein A sensors (Fortebio) were used to capture anti-TfR IgG. During all incubation steps, sample temperature was set to room temperature with 1000 rpm shaking. Individual purified TfR antibodies were loaded onto sensors. After antibody capture, the antibody-loaded sensors were subject to a solution flow containing huTfR-ECD-His at designated concentrations: (indicated by the colored lines under each graphs) and for a defined time (shown in X-axis). After binding, the sensors were incubated in blank kinetics buffer to allow free dissociation of TfR for designated time. The binding kinetics parameters were calculated by the software from Fortebio (version 11) using 1:1 binding model with global fitting.

[6] = target: T2, human TfR extracellular domain (ECD); experiment: phage ELISA, scFv phage on coated TfR, anti-M13-HRP, single point; remark: listed apart in the source

T1 sequence (Q62351 89-763): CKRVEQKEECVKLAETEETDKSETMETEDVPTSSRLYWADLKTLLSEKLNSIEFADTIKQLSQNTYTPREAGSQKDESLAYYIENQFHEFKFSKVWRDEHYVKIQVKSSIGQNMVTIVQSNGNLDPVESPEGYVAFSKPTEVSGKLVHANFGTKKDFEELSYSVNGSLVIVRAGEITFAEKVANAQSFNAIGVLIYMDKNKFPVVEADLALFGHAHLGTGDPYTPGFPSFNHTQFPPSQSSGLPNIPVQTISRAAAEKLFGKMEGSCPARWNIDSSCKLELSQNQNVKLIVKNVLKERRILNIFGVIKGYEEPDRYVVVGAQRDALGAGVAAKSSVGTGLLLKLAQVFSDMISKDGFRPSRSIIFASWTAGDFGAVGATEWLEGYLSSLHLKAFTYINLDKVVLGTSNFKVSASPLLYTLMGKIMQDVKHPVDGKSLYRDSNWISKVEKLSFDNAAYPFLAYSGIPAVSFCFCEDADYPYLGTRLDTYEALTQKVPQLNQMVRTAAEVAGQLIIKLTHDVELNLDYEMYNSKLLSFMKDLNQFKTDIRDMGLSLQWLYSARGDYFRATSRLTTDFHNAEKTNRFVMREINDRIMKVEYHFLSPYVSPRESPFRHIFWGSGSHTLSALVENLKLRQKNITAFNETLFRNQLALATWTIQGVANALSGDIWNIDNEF

B1: Ab42 (antibody, V domains shown)
VH: QVQLVQSGAEVKKPGSSVKVSCKASGGTFSSYAISWVRQAPGQGLEWMGGIIPIFGTANYAQKFQGRVTITADESTSTAYMELSSLRSEDTAVYYCARGATRGMDVWGQGTLVTVSS
VL: DIVMTQSPSSLSASVGDRVTITCRASQSISNFLNWYQQKPGKAPKLLIYAASSLQSGVPSRFSGSRSGTDFTLTISSLQPEDFATYYCQQSSSIPLTFGGGTKLEIK
- Kd [1]: 2.09 nM
- koff [1]: 0.00013 s⁻¹
- kon [1]: 62000 M⁻¹ s⁻¹

B2: Ab59 (antibody, V domains shown)
VH: QVQLVESGGGVVQPGRSLRLSCAASGFTFSSYAMHWVRQAPGKGLEWVAVISYDGSNKYYADSVKGRFTISRDNSKNTLYLQMNSLRAEDTAVYYCARGGPYYDFWSDGMDVWGQGTMVTVSS
VL: QSVLTQPHSVSESPGKTVTISCTRSSGSIASNYVQWYQQRPGSSPTTVIYEDNQRPSGVPDRFSGSIDSSSNSASLTISGLKTEDEADYYCQSYDSSNYVFGTGTKVTVL
- Kd [1]: 2.17 nM
- koff [1]: 0.000162 s⁻¹
- kon [1]: 74900 M⁻¹ s⁻¹

B3: 8G5 (antibody, V domains shown)
VH: QVQLVQSGAEVKKPGASVKVSCKASGYTFTSYGISWVRQAPGQGLEWMGWISAYNGNTNYAQKLQGRVTMTTDTSTSTAYMELRSLRSDDTAVYYCARVGYYYYGMDVWGQGTTVTVSS
VL: QSVLTQPPSVSGAPGQRVTISCTGSSSNIGAGFDVHWYQQLPGTAPKLLIYANSNRPSGVPDRFSASKSGTSASLAITGLQAEDEADYYCQSYDRSLSGYVFGSGTKVTVL
notes: Human IgG1, converted from a phage scFv clone
- binding result [2]: binds

B4: Ab5 (antibody, V domains shown)
VH: QVQLVESGGGLVQPGRSLRLSCAASGFTFDDYAMHWVRQAPGKGLEWVSGISWNSGSIGYADSVKGRFTISRDNAKNSLYLQMNSLRAEDTALYYCAKVSSQSGSVAGFDYWGQGTLVSVSS
VL: QPVLTQPPSASGTPGQRVTISCSGSSSNIGANYVYWYQQLPGTAPKLLIYRNNQRPSGVPDRFSGSKSGTSASLAIGGLRSEDEADYYCAGWDDSLSGVLFGGGTKVTVL
- Kd [1]: 2.58 nM
- koff [1]: 0.000135 s⁻¹
- kon [1]: 52300 M⁻¹ s⁻¹

B5: 5B6 (antibody, V domains shown)
VH: PVLLVQSGAEVKKPGSSVKVSCKASGGTFSSYAISWVRQAPGQGLEWMGGIIPIFGTANYAQKFQGRVTITADESTSTAYMELSSLRSEDTAVYYCAVSIFGVVIPLDYWGQGTLVIVSS
VL: QPVLTQSPSVSLAPGQTAKITCGGTNIGRKSVHWYQQKPGQAPVMVIYYDSDRPSGIPERFAGSNSGNTATLTISRVEAGDEAVYYCQVWDSSSASGVFGGGTKVTVL
notes: as for B3
- Kd [3]: 0.575 nM
- koff [3]: 2.98e-05 s⁻¹
- kon [3]: 51800 M⁻¹ s⁻¹
- Kd [4]: < 0.001 nM
- koff [4]: < 1e-07 s⁻¹
- kon [4]: 87900 M⁻¹ s⁻¹

B6: Ab1 (antibody, V domains shown)
VH: QVQLMQSGAEVKKPGSSVKVSCKASGGTFSSYAISWVRQAPGQGLEWMGRIIPILGIANYAQKFQGRVTITADKSTSTAYMELSSLRSEDTAVYYCARDRDTMVRGGMDVWGQGTMVTVSS
VL: QSALNQPPSASGSPGQSVTISCTGTGSDIGGHNYVSWYQQHPGKAPKLMIYDVSKRPSRVPDRFSGSKSGNTASLTVSGLQAEDEADYYCSSYAGSNVVFGAGTKVTVL
- Kd [5]: 3.46 nM
- koff [5]: 0.000398 s⁻¹
- kon [5]: 115000 M⁻¹ s⁻¹

B7: 7B10 (antibody, V domains shown)
VH: QVQLVQSGAEVKKPGASVKVSCKASGYTFTSYGISWVRQAPGQGLEWMGWISAYNGNTNYAQKLQGRVTMTTDTSTSTAYMELRSLRSDDTAVYYCARDQKLLHILYYYGMDVWGQGTTVIVSS
VL: DIVMTQSPLSLSVTPGEPASISCRSSQSLLHSNGNNYLDWYLQKPGQSPQLLIYLGSNRASGVPDRFSGSGSGTDFSLKINKVEAEDVGVYYCMQALQTAYTFGQGTKLEIK
notes: as for B3
- binding result [2]: binds

B8: Ab2 (antibody, V domains shown)
VH: QVQLVQSGAEVKKPGSSVKVSCKASGGTFSSYAISWVRQAPGQGLEWMGGIIPIFGTANYAQKFQGRVTITADESTSTAYMELSSLRSEDTAVYYCARFAFFSLASEDYWGQGTLVIVSS
VL: not shown
- Kd [1]: 8.37 nM
- koff [1]: 0.000145 s⁻¹
- kon [1]: 17300 M⁻¹ s⁻¹

B9: muTfR Ab4 (antibody, V domains shown)
VH: EVQLVESGGGLVKPGGSLRLSCAASGFTFSWYTMNWVRQAPGKGLEWVSSISSSSSDMYYADSVKGRFTISRDNAKNSLYLQIDSLRAEDTAVYYCARAHYYDSTSLNHFYGMDVWGQGTTVTVSS
VL: QSVLTQPPSVSVAPGKTARITCGGNNIGSRTVHWYQQRPGQAPMLVVSDDNDRPSGIPERFSGSNSGNTATLTITRVEAGDEADYYCQVWDSSSDHLVFGGGTQLTVL
modifications: Biotinylated when used as the probe in the competition ELISA; the sites are not stated and the letters do not carry them.
notes: also called anti-muTfR Ab4; biotinylated Ab4
- Kd [1]: 5.03 nM
- koff [1]: 0.000391 s⁻¹
- kon [1]: 77700 M⁻¹ s⁻¹

B10: Ab30 (antibody, V domains shown)
VH: EVQLVQSGGGLAQPGGSLRLSCAASGFTFSIYSMNWVRQAPGKGLEWVSYIGGGGTSIYYADSVKGRFTISRDNAKNSLSLQMNSLRAEDTGVYYCARGKPATGFDYWGQGTLVSVSS
VL: QSVLTQPRSVSGSPGQSVTISCTGTSSDVGGYNYVSWYQQHPGKAPKLMISEVSKRPSGVPDRFSGSKSGNTASLTVSGLQAEDEADYYCSSYAGGYTPYVFGTGTKVTVL
- Kd [5]: < 0.001 nM
- koff [5]: < 1e-07 s⁻¹
- kon [5]: 119000 M⁻¹ s⁻¹

B11: 1B2 (antibody, V domains shown)
VH: QVQLVQSGAEVKKPGESLRISCKGSGYSFTSYWISWVRQMPGKGLEWMGRIDPSDSYTNYSPSFQGHVTISADKSISTAYLQWSSLKASDTAMYYCARHPLAYCGGDCQRGFDYWGQGTLVTVSS
VL: QPVLTQPPSVSVSPGQTARITCSGDKLREDLTSWYQQKPGQSPVLVIYQDSKRPSGIPARFSGSISGSTATLTISGTQAVDEADYYCQAWDNSVDYVFGTGTKVTVL
notes: as for B3
- binding result [6]: binds

B12: 4G1 (antibody, V domains shown)
VH: EVQLLESGGGLIQPGGSLRLSCAASGFSVSSYYMNWVRQAPGKGLEWVSNTYTDGSTSYADSVGGRFSVSRDNSKNTLHLQMNSLRVEDTAVYYCAREGDGYNSGGLDYWGQGTLVTVSS
VL: DIQLTQSPASLSASLGDRVTITCRASQSIGTYLNWYQQRPGQAPKLLIFGTSSLQSGVPSRFSGSGSGTDFTLTISSLQPEDLATYYCQQTYITPRTFGQGTKVEIK
notes: as for B3
- Kd [3]: < 0.001 nM
- koff [3]: < 1e-07 s⁻¹
- kon [3]: 79900 M⁻¹ s⁻¹
- Kd [4]: < 0.001 nM
- koff [4]: < 1e-07 s⁻¹
- kon [4]: 94500 M⁻¹ s⁻¹

B13: 7A1 (antibody, V domains shown)
VH: QVQLVQSGAEVKKPGSSVKVSCKASGGTFSSYAISWVRQAPGQGLEWMGGIIPIFGTANYAQKFQGRVTITADESTSTAYMELSSLRSEDTAVYYCARSGYYNDAFDIWGQGTMVTVSS
VL: QSALTQPASVSGSPGQSITISCTGTNSDIGGYNYVSWYQQHPGKAPKLMIYEVSNRPSGVSNRFSGSKSGNTASLTISGLQAEDEAHYYCSSYTSSSTLVFGGGTKVTVL
notes: as for B3
- binding result [2]: binds

B14: 1C8 (antibody, V domains shown)
VH: B13 VH with V18M, N59K, S77T, R87S, G100L, Y101G, Y102W, N103Y, D104Y
VL: DIVMTQSPSTLSASVGDRVTITCRASQNINNWLAWYQQKPGKAPKLLIYKASTAESGVPSRFSGSGFGTEFTLTISSLQPDDFASYYCQQYKNYPYSNLYTFGQGTKVDIK
notes: as for B3
- binding result [6]: binds

B15: 8A5 (antibody, V domains shown)
VH: QVQLVQSGAEVKKPGESLRISCKGSGYSFTSYWISWVRQMPGKGLEWMGRIDPSDSYTNYSPSFQGHVTISADKSISTAYLQWSSLKASDTAIYYCARARTWFDAFDIWGQGTTVTVSS
VL: QAVVTQPPSASGTPGQRVTISCSGGSSNIGRYSVNWYQQLPGTAPKLLINSNIQRPSGVPDRFSGSKSGTSASLAISGLQSEDEADYHCAAWDDSLKGWVFGGGTKVTVL
notes: as for B3
- binding result [2]: binds
